We go through 2 molecules from patent CN114539393A (BEIJING NEUABO XINESCAPE BIOTECHNOLOGY CO LTD, dated 2022).

The experiment has as its target T1, SARS-CoV2的N蛋白 (SARS-CoV2, UniProt P0DTC9 1-419).
T1 construct: also called 新冠状病毒N蛋白; 2019-新型冠病毒N蛋白
The experiment is described as follows: ELISA, N protein coated at 2 ug/ml, VHH at 10.0 and 1.0 ug/ml, anti-Myc-HRP detection, OD450. (An ELISA detects its analyte on a solid surface through an enzyme-linked reagent.)

B1: N2-10单域抗体 (VHH)
VHH: QVQLVESGGGLVQTGGSLGVSCAASGRTFSIYAMGWFRQAPGKEREFVAAISKSGDGKYYADSVKGRFTISRDNAKNTVALQMNSLKFEDTAVYYCVASRTVVSGASPDEYDLWGQGTQVTVSS
notes: also called 单域抗体N2-10; N2-10-PSJF; not shown: c-myc and His6 tags from the pSJF2 vector
Turning to B1, the binding result is recorded as “binds”.

B2: N2-8单域抗体 (VHH)
VHH: QVQLVESGGGSVQAGGSLRLSCAASGRTFSIYAMGWFRQAPGKEREFVAAISKSGEGTYYADSVKGRFTISRDNAKNTVALQMNSLKSEDTAVYYCAASRVVVSGLSPSDYAYWGQGTQVTVSS
notes: also called 单域抗体N2-8; N2-8-pSJF2; not shown: c-myc and His6 tags from the pSJF2 vector
For B2, the binding result is “binds”.
